According to paper PMC3039075 (Nitric oxide : biology and chemistry / official journal of …, 2010):

Biological target: the molecule itself
Test: non-reducing SDS-PAGE and Western blot

B1: matrix metalloproteinase-9 (MMP-9) (enzyme)
chain: not shown
stoichiometry N: 2
